Values of other authors in publication PMC9366932.

Target: Asp309 (UniProt position 309, LIAAPDTMSVS)

In the case of “Aromatase (cytochrome P450 19A1), recombinant form referred to as aromatase WT (Homo sapiens)”, the pKa is given as 8.2.
